Measurements: US20240376556, “BIOSENSORS FOR DETECTING AND/OR NEUTRALIZING BIOAVAILABLE URANIUM AND RELATED U-SENSITIVE GENETIC MOLECULAR COMPONENTS, GENE CASSETTES, VECTORS, GENETIC CIRCUITS, COMPOSITIONS, METHODS AND SYSTEMS” (LAWRENCE LIVERMORE NATIONAL SECURITY, LLC, published 2024)

Molecular target: T1, UrpR (CCNA_01362), native in cells (Caulobacter crescentus NA1000)
T1 chain: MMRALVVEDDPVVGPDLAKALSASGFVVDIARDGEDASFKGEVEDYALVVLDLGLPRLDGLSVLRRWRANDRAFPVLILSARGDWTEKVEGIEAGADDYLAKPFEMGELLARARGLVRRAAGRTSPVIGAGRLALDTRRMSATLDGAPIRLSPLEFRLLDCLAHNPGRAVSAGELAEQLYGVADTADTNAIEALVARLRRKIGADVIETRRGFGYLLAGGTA
Assay: cell_activity; P1361-gfp induction in wild type with 20 uM U; U induction abolished by CCNA_01362 deletion

B1: P1361 promoter (dsDNA)
DNA 1: GAACGATAGCGCCGCCTGCGAGCGCGACCTCAGGCCTCGGACGAAGCGCGTCCGGGGCCTTTTCTTGTCGATGTTCAGCGCCTGGTTACCGGCGATGGCGCGGTGTCAGCGTTCGGGCGTTGCGATGCGTCAGGAGCGTGTCAGGATGCCTGTGGAATCCTAAGCGCCATCACCCAGTCCCGATCTTTCC
DNA 2: GGAAAGATCGGGACTGGGTGATGGCGCTTAGGATTCCACAGGCATCCTGACACGCTCCTGACGCATCGCAACGCCCGAACGCTGACACCGCGCCATCGCCGGTAACCAGGCGCTGAACATCGACAAGAAAAGGCCCCGGACGCGCTTCGTCCGAGGCCTGAGGTCGCGCTCGCAGGCGGCGCTATCGTTC
activity: 10.5 fold
